This assay has as its target 6xHis-tagged Mac3-V570R. Nature of the assay: in vitro aggregation assay (turbidity, OD320 over time). The conditions noted are these: read at t = 60 min; purified 6xHis-tagged proteins; parent: est. 0.81; read off a plot.

The text below walks through data of PMC11842775.

In the case of 6xHis-tagged Mac3 V570R, the response was determined as 0.5 OD320.
